# *1 amine or outer side, *2 acyl side, *3 side chain or, on linkers, in order; H or OH if unused. Bridges are numbered along the chain shown (N, C = ends). Where no end group is shown, it is not given here. [ ]: non-standard residue; d: D form. TATA = O=C(CC[*:1])N1CN(C(=O)CC[*:2])CN(C(=O)CC[*:3])C1; Hyp = O=C(O)[C@@H]1C[C@@H](O)CN1; hArg = N=C(N)NCCCC[C@H](N)C(=O)O; βAla = NCCC(=O)O; Sar = CNCC(=O)O
# What was measured:
# [1] = biological target: T1, Human EphA2 (Ecto), C-terminal polyHis (Human, UniProt P29317 24-537); test: FP competition vs Reference Compound A
# T1 construct: extracellular domain; R&D systems 3035-A2 or in-house
# T1 sequence (P29317 24-537): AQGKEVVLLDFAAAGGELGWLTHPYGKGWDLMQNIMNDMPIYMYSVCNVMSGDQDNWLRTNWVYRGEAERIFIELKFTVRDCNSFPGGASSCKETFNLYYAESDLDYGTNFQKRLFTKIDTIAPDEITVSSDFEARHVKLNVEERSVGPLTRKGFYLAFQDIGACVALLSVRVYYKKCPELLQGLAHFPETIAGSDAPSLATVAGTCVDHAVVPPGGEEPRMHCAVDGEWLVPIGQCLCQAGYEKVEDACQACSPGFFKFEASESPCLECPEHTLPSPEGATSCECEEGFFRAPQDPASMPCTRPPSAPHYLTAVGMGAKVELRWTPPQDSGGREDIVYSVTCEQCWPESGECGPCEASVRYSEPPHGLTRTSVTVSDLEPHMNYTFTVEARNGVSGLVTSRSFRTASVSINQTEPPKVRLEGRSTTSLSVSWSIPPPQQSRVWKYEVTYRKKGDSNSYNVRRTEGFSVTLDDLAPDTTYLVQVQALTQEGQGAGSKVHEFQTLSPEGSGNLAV
# [2] = biological target: T1, Human EphA2 (Ecto), C-terminal polyHis; test: FP competition vs Reference Compound B
# [3] = biological target: T1, Human EphA2 (Ecto), C-terminal polyHis; test: FP competition vs Reference Compound C
# [4] = biological target: T1, Human EphA2 (Ecto), C-terminal polyHis; test: FP competition vs Reference Compound C (Study 2)
# [5] = biological target: T1, Human EphA2 (Ecto), C-terminal polyHis; test: FP competition vs Reference Compound C; remark: listed apart in the source
# Mouse EphA2 (Ecto) [6] = biological target: T2, Mouse EphA2 (Ecto) (Mouse, UniProt Q03145 26-538); test: FP competition vs Reference Compound C
# T2 construct: extracellular domain; Fluorescence polarisation assays; not shown: Fc fusion (R&D Systems 639-A2) or C-terminal polyHis (Sino Biological 50586-M08H)
# T2 sequence (Q03145 26-538): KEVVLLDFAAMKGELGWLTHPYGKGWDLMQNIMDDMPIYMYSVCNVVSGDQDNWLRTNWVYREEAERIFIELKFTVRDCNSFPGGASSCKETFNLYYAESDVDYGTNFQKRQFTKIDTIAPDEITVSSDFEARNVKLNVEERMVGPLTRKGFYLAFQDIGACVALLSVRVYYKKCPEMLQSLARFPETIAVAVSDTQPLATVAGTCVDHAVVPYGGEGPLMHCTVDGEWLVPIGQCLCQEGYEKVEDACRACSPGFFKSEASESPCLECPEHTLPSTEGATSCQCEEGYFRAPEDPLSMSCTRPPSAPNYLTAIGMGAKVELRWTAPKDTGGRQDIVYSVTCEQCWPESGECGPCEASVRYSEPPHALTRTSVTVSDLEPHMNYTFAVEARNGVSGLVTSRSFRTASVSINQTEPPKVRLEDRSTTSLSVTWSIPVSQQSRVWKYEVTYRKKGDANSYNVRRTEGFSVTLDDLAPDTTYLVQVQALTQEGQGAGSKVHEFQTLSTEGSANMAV
# [7] = biological target: T1, Human EphA2 (Ecto), C-terminal polyHis; test: FP competition vs Reference Compound C (Study 2); remark: listed apart in the source
# Mouse EphA2 (Ecto) [8] = biological target: T2, Mouse EphA2 (Ecto); test: FP competition vs Reference Compound C (Study 2)
# [9] = biological target: T3, Rat EphA2 (ligand binding), C-terminal polyHis (Rat); test: FP competition vs Reference Compound C (Study 2)
# T3 construct: In-house
binder,measurement,setting,value
ACQPSNHCAFMNYCA (linker 2-8-14 via TATA) [Compound 30],Ki,[1],137 nM
same,Ki,[2],187 nM
ACYVGKECAYMNVCA (linker 2-8-14 via TATA; not fully specified (C-terminus)) [Compound 29],Ki,[1],87.7 nM
same,Ki,[2],107 nM
same,Ki,[3],210 nM
"AXDCPLVNPLCLHPGWTC (not fully specified; as BCY6014 (N-terminal (β-Ala)-Sar10; HArg; TATA scaffold on the 3 Cys) + MMAE-Glu-Pro-Cit-Gly-hPhe-Tyr-Leu-, Bicycle drug conjugate (BDC)) [BCY6107]",Ki,[4],19.2 nM
"AXDCPLVNPLCLHPGWTC (not fully specified; as BCY6014 (N-terminal (β-Ala)-Sar10; HArg; TATA scaffold on the 3 Cys) + DM1-SS-, Bicycle drug conjugate (BDC)) [BCY6031]",Ki,[5],12.6 nM
same,Ki,Mouse EphA2 (Ecto) [6],34.7 nM
same,Ki,[7],12.5 nM
same,Ki,Mouse EphA2 (Ecto) [8],35.1 nM
same,Ki,[9],20 nM
"AXDCPLVNPLCLHPGWTC (not fully specified; as BCY6014 (N-terminal (β-Ala)-Sar10; HArg; TATA scaffold on the 3 Cys) + MMAE-D-Ala-Phe-Lys-, Bicycle drug conjugate (BDC)) [BCY6106]",Ki,[4],12.9 nM
ACTSCWAYPDSFCA (linker 2-5-13 via TATA; not fully specified (C-terminus)) [Compound 32],Ki,[1],151 nM
same,Ki,[3],232 nM
"[βAla][Sar][Sar][Sar][Sar][Sar][Sar][Sar][Sar][Sar][Sar]A[hArg]DC[Hyp]LVNPLCLHP[dD]W[hArg]C (linker 15-22-29 via TATA; not fully specified (N-terminus, C-terminus); numbers in words are those of the source; also: DM1-SS(SO3H)- conjugate, site not given here, Bicycle drug conjugate (BDC)) [BCY6173]",Ki,[9],2.5 nM
"AXDCPLVNPLCLHPGWTC (not fully specified; as BCY6014 (N-terminal (β-Ala)-Sar10; HArg; TATA scaffold on the 3 Cys) + MMAE-Ala-Ala-Asn, Bicycle drug conjugate (BDC)) [BCY6105]",Ki,[4],8.86 nM
"AXDCPLVNPLCLHPGWTC (not fully specified; as BCY6014 (N-terminal (β-Ala)-Sar10; HArg; TATA scaffold on the 3 Cys) + DM1-(Me)-SS-(Me)-, Bicycle drug conjugate (BDC)) [BCY6039]",Ki,[4],9.4 nM
"AXDCPLVNPLCLHPGWTC (not fully specified; as BCY6014 (N-terminal (β-Ala)-Sar10; HArg; TATA scaffold on the 3 Cys) + DM1-SS-(Me)-, Bicycle drug conjugate (BDC)) [BCY6032]",Ki,[5],11.4 nM
same,Ki,Mouse EphA2 (Ecto) [6],35.9 nM
same,Ki,[7],11.4 nM
same,Ki,Mouse EphA2 (Ecto) [8],35.9 nM
ACSPTPACAVQNLCA (linker 2-8-14 via TATA; not fully specified (C-terminus)) [Compound 31],Ki,[2],177 nM
same,Ki,[3],223 nM
"AXDCPLVNPLCLHPGWTC (not fully specified; as BCY6014 (N-terminal (β-Ala)-Sar10; HArg; TATA scaffold on the 3 Cys) + ValLys-MMAE, Bicycle drug conjugate (BDC)) [BCY6061]",Ki,[7],12 nM
same,Ki,Mouse EphA2 (Ecto) [8],32.3 nM
same,Ki,[9],14.2 nM
